This is an account of results in patent US20240295570A1, “METHOD FOR IDENTIFYING CANDIDATE THERAPEUTICS FOR ALZHEIMER'S DISEASE” (UNIVERSITY OF SOUTH FLORIDA, priority 2023, published 2024).

One test addresses T1, BIN1 SH3 domain (Homo sapiens, UniProt O00499).
T1 construct: 6x His with TEV cleavage site (N, cleaved yes); made in house; host or cells: E. coli BL21 (DE3), pET28a(+)
T1 sequence (O00499 513-593): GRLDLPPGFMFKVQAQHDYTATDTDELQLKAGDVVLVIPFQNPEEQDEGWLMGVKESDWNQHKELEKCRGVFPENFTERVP
As to the kind of experiment: Surface plasmon resonance (SPR) binding to immobilised BIN1 SH3 domain. Conditions: triplicate, ligand BIN1 SH3 domain 50 μg/mL, analyte serial dilution 75-0.6 μM, dissociation time 120 seconds, 25° C., running buffer 1×PBS-P+, read-out: dissociation constant (KD). Here is the method: Next, the inventors determined the dissociation constant (KD) for the peptide and full-length 0N4R WT Tau by surface plasmon resonance (SPR). The experiment was run in triplicate with BIN1 SH3 domain 50 μg/mL as the ligand, and FL 0N4R WT Tau in serial dilution from 75-0.6 μM as the analyte. Flow rate—30 μL/minute, contact time—30 seconds, dissociation time—120 seconds, temperature—25° C., running buffer—1×PBS-P+. A dissociation constant of 1.136 μM was determined.
Then, the dissociation constants for nine compounds identified through the molecular docking analysis were assessed. […] Therefore, compound #5 is a candidate compound for further testing in Alzheimer's disease. Ligand-BIN1 SH3 domain 50 μg/mL. Analyte—compounds 1-2 (serial dilutions from 500-3.12 μM), #4 & 6-9 (250-3.12 μM) and #5 (dilutions from 100-3.12 μM). Flow rate—30 μL/minute, contact time—30 seconds, dissociation time—300 seconds, temperature—25° C., running buffer—1.05×PBS-P+ with 5% DMSO. Solvent correction for 5% DMSO was calculated and mathematically subtracted from each compound analysis.

Test [1] has as its target T2, full-length 0N4R WT Tau (UniProt P10636-6 2-383, limits assumed).
T2 construct: mature; also called FL 0N4R WT Tau
As to the kind of experiment: SPR, steady-state affinity fit (replicate 3 of 3); BIN1 SH3 domain as immobilised ligand, FL 0N4R WT Tau as analyte 0.6-75 µM, 25 °C, PBS-P+. Here is the method: (§1) Next, the inventors determined the dissociation constant (KD) for the peptide and full-length 0N4R WT Tau by surface plasmon resonance (SPR). The experiment was run in triplicate with BIN1 SH3 domain 50 μg/mL as the ligand, and FL 0N4R WT Tau in serial dilution from 75-0.6 μM as the analyte. Flow rate—30 μL/minute, contact time—30 seconds, dissociation time—120 seconds, temperature—25° C., running buffer—1×PBS-P+.
In general terms: SPR reads the build-up and loss of mass on a sensor chip optically.

The target of test [2] is T2, full-length 0N4R WT Tau. As to the kind of experiment: SPR, run in triplicate; BIN1 SH3 domain (50 µg/mL) as immobilised ligand, FL 0N4R WT Tau in serial dilution from 75-0.6 µM as analyte; 25° C., 1×PBS-P+. As for the experimental part:
as §1

Test [3] addresses T2, full-length 0N4R WT Tau. The experiment in a line: SPR, steady-state affinity fit (replicate 1 of 3); BIN1 SH3 domain as immobilised ligand, FL 0N4R WT Tau as analyte 0.6-75 µM, 25 °C, PBS-P+. Here is the method:
as §1

Test [4] has as its target T2, full-length 0N4R WT Tau. As to the kind of experiment: SPR, steady-state affinity fit (replicate 2 of 3); BIN1 SH3 domain as immobilised ligand, FL 0N4R WT Tau as analyte 0.6-75 µM, 25 °C, PBS-P+. As for the experimental part: as §1

T2 sequence (P10636 other isoform, or with tags, fused parts or gaps limits assumed): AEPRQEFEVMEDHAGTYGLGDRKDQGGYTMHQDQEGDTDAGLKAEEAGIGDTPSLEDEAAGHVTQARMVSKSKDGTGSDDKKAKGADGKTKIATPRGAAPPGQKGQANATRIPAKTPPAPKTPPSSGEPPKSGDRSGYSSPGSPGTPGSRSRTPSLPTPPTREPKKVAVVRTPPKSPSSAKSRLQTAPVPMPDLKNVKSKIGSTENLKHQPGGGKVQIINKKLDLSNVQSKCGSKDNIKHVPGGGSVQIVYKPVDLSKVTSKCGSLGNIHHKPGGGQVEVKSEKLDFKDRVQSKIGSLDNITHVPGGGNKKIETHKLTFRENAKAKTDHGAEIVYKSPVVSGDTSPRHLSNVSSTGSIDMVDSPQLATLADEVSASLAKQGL

As a reminder, the Kd is the concentration at which binding is half-saturated. On to “FL 0N4R WT Tau: full-length 0N4R wild-type Tau protein used as analyte in SPR”, for which the Kd with BIN1 SH3 domain was found to be 1140 nM.

B1: human BIN1 SH3 domain (untagged) (other)
chain: GRLDLPPGFMFKVQAQHDYTATDTDELQLKAGDVVLVIPFQNPEEQDEGWLMGVKESDWNQHKELEKCRGVFPENFTERVP
notes: also called native BIN1 SH3 domain; the peptide
Turning to B1, the Kd with full-length 0N4R WT Tau [1] turned out to be 1080 nM; with full-length 0N4R WT Tau [2] it was 1140 nM; with full-length 0N4R WT Tau [3], 1030 nM; in the test with full-length 0N4R WT Tau [4] it was 1300 nM.
